Target: APP695 with C-terminal dilysine and the mutation KM-DA594-597 to SYEA594-597, expressed in HEK 293 derivative cells, P05067
Sequence (P05067 whole entry, looked up, change not shown, tested part not stated): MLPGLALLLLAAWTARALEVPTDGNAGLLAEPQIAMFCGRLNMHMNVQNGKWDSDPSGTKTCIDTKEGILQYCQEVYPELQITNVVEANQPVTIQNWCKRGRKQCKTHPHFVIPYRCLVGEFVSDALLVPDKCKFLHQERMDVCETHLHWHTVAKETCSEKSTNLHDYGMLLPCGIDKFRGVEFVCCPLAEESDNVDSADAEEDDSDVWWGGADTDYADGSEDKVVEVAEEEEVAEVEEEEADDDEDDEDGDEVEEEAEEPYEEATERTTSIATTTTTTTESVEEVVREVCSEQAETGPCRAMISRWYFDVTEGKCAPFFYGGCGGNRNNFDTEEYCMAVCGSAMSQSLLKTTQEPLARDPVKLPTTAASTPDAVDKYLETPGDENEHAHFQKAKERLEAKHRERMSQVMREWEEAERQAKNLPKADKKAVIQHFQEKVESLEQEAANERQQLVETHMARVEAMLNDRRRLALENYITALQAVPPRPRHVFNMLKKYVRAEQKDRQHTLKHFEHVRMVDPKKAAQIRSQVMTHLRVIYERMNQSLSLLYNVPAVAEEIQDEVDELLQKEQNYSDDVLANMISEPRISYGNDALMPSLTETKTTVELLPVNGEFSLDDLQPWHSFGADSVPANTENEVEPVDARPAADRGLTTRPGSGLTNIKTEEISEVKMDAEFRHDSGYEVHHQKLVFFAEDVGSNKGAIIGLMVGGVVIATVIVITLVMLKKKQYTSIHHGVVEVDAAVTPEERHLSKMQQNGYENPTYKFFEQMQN

B1: Hu-Asp2 expressed in a stable HEK-293 derivative cell line that expresses higher levels of Hu-Asp2 (protein)
chain: ETDEEPEEPGRRGSFVEMVDNLRGKSGQGYYVEMTVGSPPQTLNILVDTGSSNFAVGAAPHPFLHRYYQRQLSSTYRDLRKGVYVPYTQGKWEGELGTDLVSIPHGPNVTVRANIAAITESDKFFINGSNWEGILGLAYAEIARPDDSLEPFFDSLVKQTHVPNLFSLHLCGAGFPLNQSEVLASVGGSMIIGGIDHSLYTGSLWYTPIRREWYYEVIIVRVEINGQDLKMDCKEYNYDKSIVDSGTTNLRLPKKVFEAAVKSIKAASSTEKFPDGFWLGEQLVCWQAGTTPWNIFPVISLYLMGEVTNQSFRITILPQQYLRPVEDVATSQDDCYKFAISQSSTGTVMGAVIMEGFYVVFDRARKRIGFAVSACHVHDEFRTAAVEGPFVTLDMEDCGYNIPQTDESTLMTIAYVMAAICALFMLPLCLMVCQWRCLRCLRQQHDDFADDISLLK
β-secretase cleavage product CTF-99, Western blot with antibody C8: both mutant APP variants were proficiently cleaved by Asp2
